US9394339B2, “Stabilized formulations of peptides and proteins protecting against non-enzymatic degradation” (Lyotropic Therapeutics, Inc., priority 2007, dated 2016)
Entries after “also recorded” stand apart in the source; their conditions may differ.

System: decapeptide RCNSGRFNGG-NH2
Test: Decapeptide accelerated stability test, potency of intact peptide by HPLC
Format: physicochemical
Conditions: pH 4, 24 hours at 65° C.; anion:Asn 10:1
Procedure: To begin with, a decapeptide was synthesized by request at the Protein Facility of the Iowa State University Office of Biotechnology, using standard peptide synthesis methodology.
Samples containing this decapeptide were prepared under eight different conditions at two different pH values, pH 7 and 4. […] The preparation of these samples is now described. The ratios indicated are molar ratios of organic anion to decapeptide.
Into a sterile 15 mL plastic centrifuge tube (Corning Incorporated, Corning, N.Y.) was placed 0.0021 g decapeptide (Iowa State University, Ames, Iowa) and 7.0 g sterile water (Spectrum Chemicals Mfg. Corp., Gardena, Calif.). The pH was adjusted using 1.0N HCl (Spectrum Chemicals Mfg. Corp., Gardena, Calif.) to a pH of 4. Into a new 15 mL plastic centrifuge tube was placed 3.5 mL of a pH 4 solution. The pH was adjusted using only the necessary amount of 1.0N NaOH (Spectrum Chemicals Mfg. Corp., Gardena, Calif.) to a final pH of 7.
(anion:asparaginyl molar ratio). […] Into a new 15 mL plastic centrifuge tube was placed 3.5 mL of a pH 4 solution. The pH was adjusted using only the necessary amount of 1.0N NaOH to a final pH of 7.
(§1) Into a new 15 mL plastic centrifuge tube was placed 3.5 mL of a pH 4 solution. The pH was adjusted using only the necessary amount of 1.0N NaOH to a final pH of 7.
as §1, §1
Into a sterile 1.5 mL microcentrifuge tube was placed a 0.5 g portion of each sample condition and were placed at −18° C. This was the initial sample. The remaining pH 4 samples were placed at 65° C. until completion of the experiment. The remaining pH 7 samples were placed at 40° C. until completion of the experiment. […] This was the day 1 sample. The frozen initial and day 1 samples were thawed to room temperature, and assayed using HPLC.
The samples at the various timepoints were then analyzed with HPLC using the following conditions.
System: Schimadzu SCL-10A VP with diode array detector
Column: Phenomenex C18 Luna 5 um, 250×4.6 mm
Mobile Phase: Isocratic 90% (0.1%) TFA in water, 10% (0.08%) TFA in acetonitrile
The potency (mg/mL of intact peptide) was determined by integrating under this peak (performed by the instrument), and normalizing according to a standard run of the decapeptide.
The sample stressing and HPLC were applied as above.
(anion:asparaginyl ratio). Into a sterile 15 mL plastic centrifuge tube was placed 0.0021 g decapeptide, 0.0029 g N-acetyl-D-tryptophan (MP Biomedicals, Solon, Ohio) and 7.0 g sterile water. The pH was adjusted using 1.0N HCl to a pH of 4. Into a new 15 mL plastic centrifuge tube was placed 3.5 mL of a pH 4 solution. The pH was adjusted using only the necessary amount of 1.0N NaOH to a final pH of 7. Since the molar ratio of acetyltryptophan to decapeptide is 6:1, and each decapeptide has two asparaginyl residues, the molar ratio of NAT to asparagine is 3:1.
The pH was adjusted using only the necessary amount of 1.0N NaOH to a final pH of 7.
Work on `O=C1NS(=O)(=O)c2ccccc21` [Saccharin, 2,3-dihydro-3-oxobenzisosulfonazole] yielded a Relative potency of 87%.

Same assay, conditions: pH 4, stressed at 65° C.; anion:Asn 3:1
In the case of `CC(=O)N[C@H](Cc1c[nH]c2ccccc12)C(=O)O` [N-acetyltryptophanate, N-acetyl-D-tryptophan], the potency remaining is reported as 74%.

Same assay, conditions: pH 7, 24 hours at 40° C.; HCl control, no organic anion; listed as HCl
With `Cl` [Hydrochloric, hydrochloric acid] the potency remaining was “less than 7%”.

Same assay, conditions: pH 7, 24 hours at 40° C.; HCl control, no organic anion; listed as hydrochloric acid control
In the case of `Cl` [Hydrochloric, hydrochloric acid], the potency remaining is reported as “under 7%”.

Same assay, conditions: pH 7, 24 hours at 40° C.; molar ratio anion:Asn 1
Molecule `O=C1NS(=O)(=O)c2ccccc21` [Saccharin, 2,3-dihydro-3-oxobenzisosulfonazole] has a Relative potency of 0.080.

Same assay, conditions: pH 7, 24 hours at 40° C.; molar ratio anion:Asn 1; listed as saccharin
In the case of `O=C1NS(=O)(=O)c2ccccc21` [Saccharin, 2,3-dihydro-3-oxobenzisosulfonazole], the Relative potency is reported as “much less enhancement”.

Same assay, conditions: pH 7, 24 hours at 40° C.; molar ratio anion:Asn 3
Molecule `CC(=O)N[C@H](Cc1c[nH]c2ccccc12)C(=O)O` [N-acetyltryptophanate, N-acetyl-D-tryptophan] has a Relative potency of 1.028.
For `O=C1NS(=O)(=O)c2ccccc21` [Saccharin, 2,3-dihydro-3-oxobenzisosulfonazole], the Relative potency was 0.008.

Same assay, conditions: pH 7, 24 hours at 40° C.; molar ratio anion:Asn 3; listed as N-acetyltryptophan
In the case of `CC(=O)N[C@H](Cc1c[nH]c2ccccc12)C(=O)O` [N-acetyltryptophanate, N-acetyl-D-tryptophan], the Relative potency is reported as “completely retained; also recorded: no detectable degradation”.

Same assay, conditions: pH 7, 24 hours at 40° C.; molar ratio anion:Asn 10
Molecule `O=C1NS(=O)(=O)c2ccccc21` [Saccharin, 2,3-dihydro-3-oxobenzisosulfonazole] has a Relative potency of 0.523.

Same assay, conditions: pH 7, 24 hours at 40° C.; molar ratio anion:Asn 10; listed as saccharin
In the case of `O=C1NS(=O)(=O)c2ccccc21` [Saccharin, 2,3-dihydro-3-oxobenzisosulfonazole], the Relative potency is reported as “enhanced stability”.

System: not given
Test: not given
Conditions: accepted approximate value, dilute aqueous solution; cited from earlier work
In the case of `CCCCCCCC/C=C\CCCCCCCC(=O)O` [oleic], the “pKa (first listed)” value is listed as 4.5.
For `CC(=O)N[C@H](Cc1c[nH]c2ccccc12)C(=O)O` [N-acetyltryptophanate, N-acetyl-D-tryptophan], the “pKa (first listed)” value is listed as 3.37.
In the case of `C[C@H](CCC(=O)O)[C@H]1CC[C@H]2[C@@H]3CC[C@@H]4C[C@H](O)CC[C@]4(C)[C@H]3C[C@H](O)[C@]12C` [deoxycholic, deoxycholic acid], the “pKa (first listed)” value is listed as 5.7.
For `CC(O)C(=O)O` (stereo not shown) [lactic, lactic acid], the “pKa (first listed)” value is listed as 3.95.
In the case of `O=C(O)/C=C\C(=O)O` [maleic], the “pKa (first listed)” value is given as 3.9.
In the case of `C[C@H](CCC(=O)NCC(=O)O)[C@H]1CC[C@H]2[C@@H]3[C@H](O)C[C@@H]4C[C@H](O)CC[C@]4(C)[C@H]3C[C@H](O)[C@]12C` [glycocholic], the “pKa (first listed)” value is given as 3.6.

System: not given
Test: not given
Conditions: aqueous solution, pH 7.4, 37° C., Tris-HCl buffer; cited from earlier work
For Interleukin-10 (2ILK): human protein, the “T1/10 (time to 10% degradation by deamidation)” value is listed as 3.8 days.
For “Homeobox protein PAX-6 (6PAX): human protein”, the “T1/10 (time to 10% degradation by deamidation)” value is listed as 5.9 days.
In the case of “GTP-binding protein (1DOA): human protein”, the “T1/10 (time to 10% degradation by deamidation)” value is given as 6.8 days.
For Lysophospholipase (1LCL): human protein, the “T1/10 (time to 10% degradation by deamidation)” value is given as 2.4 days.
In the case of “Apoptosis regulator bax (1F16): human protein”, the “T1/10 (time to 10% degradation by deamidation)” value is given as 26 days.
In the case of “Argininosuccinate lyase (1AOS): human protein”, the “T1/10 (time to 10% degradation by deamidation)” value is given as 13 days.
For Interleukin-8 (1IL8): human protein, the “T1/10 (time to 10% degradation by deamidation)” value is listed as 14 days.
In the case of “NAD(P)H dehydrogenase (1QBG): human protein”, the “T1/10 (time to 10% degradation by deamidation)” value is listed as 53 days.
For “Fibroblast growth factor (2AFG): human protein”, the “T1/10 (time to 10% degradation by deamidation)” value is listed as 3.2 days.
In the case of Interleukin-4 (2CYK): human protein, the “T1/10 (time to 10% degradation by deamidation)” value is listed as 41 days.
In the case of “Platelet factor 4-HPF4 (1RHP): human protein”, the “T1/10 (time to 10% degradation by deamidation)” value is listed as 35 days.
For Angiogenin (1A4Y): human protein, the “T1/10 (time to 10% degradation by deamidation)” value is given as 3.2 days.
For “Transforming growth factor-two (1KLA): human protein”, the “T1/10 (time to 10% degradation by deamidation)” value is given as 70 days.
For -Chymotrypsinogen (1CGI): human protein, the “T1/10 (time to 10% degradation by deamidation)” value is listed as 2.4 days.
For “Carbonic anhydrase I (1HCB): human protein”, the “T1/10 (time to 10% degradation by deamidation)” value is given as 6.8 days.
In the case of Annexin V (1ANX): human protein, the “T1/10 (time to 10% degradation by deamidation)” value is given as 33 days.
For “Peptidyl-prolyl cis-trans isomerase (1F8A): human protein”, the “T1/10 (time to 10% degradation by deamidation)” value is listed as 0.36 days.
For “Growth hormone receptor (1A22): human protein”, the “T1/10 (time to 10% degradation by deamidation)” value is given as 0.36 days.
In the case of “Mitogen-activated protein kinase P38 (1WFC): human protein”, the “T1/10 (time to 10% degradation by deamidation)” value is given as 17 days.
In the case of “Triose phosphate isomerase (1HTI): human protein”, the “T1/10 (time to 10% degradation by deamidation)” value is listed as 7.9 days.
In the case of Growth hormone (1HGU): human protein, the “T1/10 (time to 10% degradation by deamidation)” value is listed as 7.8 days.
In the case of “N-acetylgalactosamine-4-sulfatase (1FSU): human protein”, the “T1/10 (time to 10% degradation by deamidation)” value is given as 0.93 days.
In the case of 1-Antitrypsin (1QLP): human protein, the “T1/10 (time to 10% degradation by deamidation)” value is given as 6.1 days.
For Interleukin-6 (1IL6): human protein, the “T1/10 (time to 10% degradation by deamidation)” value is listed as 8.5 days.
In the case of Cyclophilin A (1AWQ): human protein, the “T1/10 (time to 10% degradation by deamidation)” value is given as 1.3 days.
For Proinsulin (1EFE): human protein, the “T1/10 (time to 10% degradation by deamidation)” value is listed as 17 days.
For Stem cell factor (1EXZ): human protein, the “T1/10 (time to 10% degradation by deamidation)” value is given as 27 days.
For Interleukin-1 (2I1B): human protein, the “T1/10 (time to 10% degradation by deamidation)” value is given as 43 days.

Same assay, conditions: buffer, pH 7.4; cited from earlier work
In the case of “D-Glyceraldehyde-3-phosphate dehydrogenase (3GPD): human protein”, the “T1/2 (half-life, deamidation)” value is given as 4.2 days.
In the case of Insulin (2HIU): human protein, the “T1/2 (half-life, deamidation)” value is given as 260 days.
In the case of Creatine kinase ( 1QK1): human protein, the “T1/2 (half-life, deamidation)” value is given as 84 days.
For “Intestinal fatty acid binding protein (3IFB): human protein”, the “T1/2 (half-life, deamidation)” value is listed as 7.6 days.
In the case of Malic enzyme (1EFK): human protein, the “T1/2 (half-life, deamidation)” value is listed as 140 days.

Same assay, conditions: pH 7.4; cited from earlier work
For “D-Glyceraldehyde-3-phosphate dehydrogenase (3GPD): human protein”, the “T1/10 (time to 10% degradation by deamidation)” value is listed as 0.64 days.
In the case of Insulin (2HIU): human protein, the “T1/10 (time to 10% degradation by deamidation)” value is listed as 40 days.
In the case of Creatine kinase ( 1QK1): human protein, the “T1/10 (time to 10% degradation by deamidation)” value is given as 13 days.
For “Intestinal fatty acid binding protein (3IFB): human protein”, the “T1/10 (time to 10% degradation by deamidation)” value is given as 1.2 days.
For Malic enzyme (1EFK): human protein, the “T1/10 (time to 10% degradation by deamidation)” value is listed as 21 days.
